# Test results published in publication PMC6123645.
# pKd: −log10 of the molar value.
# Biological target: cBid 126C-DAC (caspase-8 cleaved Bid, single cysteine 126C, labelled with DAC) (UniProt P70444)
# Assay: FRET or BRET
substance,measurement,value
"Bax 126C-NBD S184E (phosphomimetic Bax, single cysteine 126C, labelled with NBD) (from UniProt Q07812 1-192) (natural protein)",pKd,7.48
